For assay [1], the target named is muscle actin (UniProt P68135). Put plainly: apparent critical concentration for actin polymerization at steady state.
Assay [2] has as its target muscle actin (UniProt P68135). Put plainly: seeded actin assembly kinetics.

Broadly, the koff is a measure of how fast the partners let go of each other. Read a high koff as a short-lived complex. Regarding “Cap1Δ(239–268)/Cap2 (from UniProt P28495 1-238; P13517 1-287) (complex)”, in assay [1], the Kd is above 50000 nM. In assay [2], the Kd is 10300 nM and the koff was 0.00233 s⁻¹.
In assay [2], “Cap1 C-30, synthetic peptide corresponding to the Cap1 COOH-terminal 30 residues, 239–268 (from UniProt P28495 239-268)” gave a Kd of capping (barbed end; fit with capping and monomer binding) of 1710 nM; a Kd of monomer binding (fit with capping and monomer binding) of 2860 nM; a k+2 of capping (barbed end; fit with capping and monomer binding) of 2100 M⁻¹ s⁻¹.

(Values after publication PMC2171992.)
